Test results reported in the domain aggregation screens of Martell et al. (2025).

Assay: soluble fraction after stress (log2 fold change); higher = more stays soluble; pooled small domains, quantitative proteomics
Details: stress: 75 degC
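Also: 20 min heating vs room temperature control held 20 min.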

Row | Sequence | soluble fraction (log2)
1 | HMASIATLTVKALGGASDVVIRDKDGRIIWADRLPAGQSHRVFGHAPFNVAASHASRVQLSLLGKDVGRV | -1.37
2 | HMASISDRIRLLRAESHMTQEEFGRIFGISKPTVSFYEHGKSVPNDQIKTAIARYFGVSVDYLLGVTD | -2.14
3 | HMASKTGTITATSLNVRSGAATTYSILGTLSNGKTVTIYEESNGWYKINYNGGYGWVSKTYVSTG | -1.53
4 | HMASLASVAYETLRQALDNFQYVPGDRFSESEVGQQLGMSRTPVREALVRLQREGYISVLPKMGWVVNQ | -1.86
5 | HMASMHDGVAARLRAMVFERELAPGEFIDERRLAQQWQISRTPLREALKVLAAEGLVELVPRRGARVV | -1.12
6 | HMASPKEALWRSLAEEPDTWWDNRERKSQPGANPRSPDFKHKESGEALWIESRDTPTWVLETL | -0.196
7 | HMASQEESVATYIQDYYRNPKTGESMVSDDMVEEFYKTHPEWEDQADGSKEGMEAVLDNFNEFFEINYG | 0.333
8 | HMASSRPLAEGDFVRLRAGGATGRIESIKGQKATVQMGGLKVHAPLRDLLPVAEPIKQVSTASNT | -0.00256
9 | HMASVAKHIRRLRTERHMTQGDLAEKLFVTRQTVSAWETGKAQPDLETLERIAVVLGVEVTELIYGAP | -0.707
10 | HMASVVEQVQVSNDISLFRQQNSPYWQARFKVAGKWYTRTTKRTEQTQAAFRAAELRSEVQTKISQGIPLR | -2.56
11 | HMATESYYVLKADVPAKTLVTQEMVEEIKVSKGGAPVNSIKIDNIKEKGVYTSIPLLKGDVLSASNTG | 0.131
12 | HMATKVSSGATVRDVADLLGLSSAELIKKLMMMGEMATLTQTLTDESIKSIADEYDRKIEIVSAAE | -0.0786
13 | HMATNVLEISTRNKNILIQDSLNLVESFYSKSDNQYWYKLVFKTKDDLNKFLQEVSEDENTITYKTSSI | -0.359
14 | HMATPEINNLGRLRNAINQSNVNWHQIIKRLQNEYPNNWRQILIAIDRHDLLFRYDVENYIKYG | -2.31
15 | HMATPIAGTKYTLNNTPVYGTEKGPSIGKRSGIYYTWDATVRNGRIRMTNSPARVGVPWQVSFWVEVNKL | -2.9
16 | HMATPRLAIVPQSAAGRRLDAVLAELFPEYSRSRLSAWIKTGDVMVDGAAPRGRDPVRGGEEITLTAVQ | -0.183
17 | HMATPTEHQLQAQARAVVEKAERLLDRASADDREDIINLIEKITDALAAEDFTAVKAPLAELSDILFYLE | -0.104
18 | HMATPTMEDYIEVIYSLVKTKGYARSADIAEKLEVYPSTVTKMLKKLDAEGYIVYEKYRGIALTDIGKKMG | -2.17
19 | HMATSNGEFVIPDGGLQFEELERSLLMQALKKSGGSQTGAARLLGLSRDTLRYRLEKFGIDAAAVRE | -0.39
20 | HMATVTVPNLKGMTPSGAESALAELNLKGAVGDSVESNDVENGKVASQDQAAGSDAKEGDTITYHLSS | 0.235
21 | HMATYETEVISGVNLRSAPNTSASVYRLLSKGEDIHVIQKVNDYWLKVQTKDGKIGYISASSKYTNYIA | -1.52
22 | HMAVEETFTITWLDRDGTVLEVDENVLKGTMPSFDGHIPPHDGLEFKGWDPEVVPVEGDATYTATYKA | 0.508
23 | HMAVENTGLSKRELEILQMMARGMSNQEIGDALFISLSTVKTHVASIFSKLQAVRRTQAVGIAKSLKII | -2.91

Row | Sequence | soluble fraction (log2)
24 | HMAVFSKKQIFDTAFALFESKGLEAITARNLGKALSSSPAPIYAHYSSITELKNELISVAKDR | -3.06
25 | HMAVGDMISKLRTAANMSQEQFAELFGVTRQSVQKWENSFSVPELEKLIKISKYFDVSLDALVLRSDARVT | -2.5
26 | HMAVLFFVKRGERILGPTRLADLFQHAASGRLRANDLVGESPKGPWLPARQLDELEDAWASSRDATEAAAA | -0.817
27 | HMAVNQEFKNTINRIKYEYSLNQSQIADRLGVKKTYLSDMINGRVPYNETMNKKVNDVFPLPP | -0.169
28 | HMAVPTHVEFPVVGLQRSGITSLEQAIATVPGVSKAVVNVSDNRIFVDYDPTRSKVSDLLEVVRGAGFTP | -0.043
29 | HMAVQAESDIIKRAALLRNLGNTSMQLKNIDQAIDFYKQGIKLHPEDAELKYNLSQALRQKSQSNN | 0.055
30 | HMAVQEDAGLAREDLPPEVQGLLQEREAARAAKDWGKSDALRRQLQDLGYAIKDTAQGMEIKRT | 0.817
31 | HMAVRNTKQKQLVLSLLKNSGRPMTAGEIYRLAVQQYPNIAKSTVYRNLENLVSRGEVSQGMHQNGESFYS | -0.697
32 | HMAVSPEEQKKRIIELFRNRNEVSFKEIFDLPTKGHFVITLLAVLDLARQQIVIMEQLENEGIIKFTKGA | 0.134
33 | HMAVSSHAVKQRIRSLIQAEDPAAPLSDEALRLALSALGVDVSRRVIAKYRAELNIPSSSQRKK | -0.823
34 | HMAVSVPDVMGLTYEEAYNKITAEGLLVNRLESYTGLVEKGRVISQLPVGGEPAAKGSTVNVNVSL | 0.466
35 | HMAVTFPYTAYATDAVRLRERPSSSADVLAVIRKGDAVLVTGTDGNYAIVDYEGKRGYVVSSFIAT | -0.522
36 | HMAVWRIKVNYIPGYGVNIWSSYKNGHFTGKRAMHGETYEVLETKKDQDGNTWYKLDDHQWIEGRYAINAK | -2.45
37 | HMAYMETIERVEALAPGTKFNLKALFGTDWTQSRGTKLTLGKTFYEMVESGYVKTAKVLGKDSSNIMQYER | 0.0793
38 | HMAYSEEERNLIRSRLKDVAAALFKEKGIRDTNIDEIYTPVGISKTFFYSFFPSKAVLAIAIMK | -0.248
39 | HMAYVDWYENKQPTHEEAFKKLLGRIHPGAIVLLHSTSKTNGEILDELLTKWEEMGYRFGTLDELTGN | -1.58
40 | HMDAATDAIKAEVRALLEMANAQGIDTESIMLEAHEQTRNATEQDYYEAAKSALEAAIAGSNRDR | 0.435
41 | HMDADGEPIKLDQIGISHLSFTVADVKSLGEELVAKGVKLAAPMEAFTSPEGRISSIFVYDPDGILLQFDD | 0.136
42 | HMDADRLSPREREMLQFIARGQSNKEIARALELAESTVKIHVQNMLRKLNLSSRVQAAVFAVENGLG | -1.59
43 | HMDAGLAEIIRSFEDNLGGFPPAAREDLLGWREIFTDDLILLAIKKAALAGVRKWSYVNGILKVWKNEGVR | -2.23
44 | HMDAHYMEMKGKTGTAFTMLRPAGKIDIEGQIFDAVAEAGFIEKGEAIRVVKYENAQLIVRK | -0.446
45 | HMDAIAYLGSRLKEIRLKSGLSLREIARQLDVSPSFISQIENGKSQPSVATLYAFAKLLNVPVDVLFQPS | -2.59
46 | HMDAKNNPQVMAQIRAILTAKGLSEDEVKTRLKTKNIDVDKMTDQEIIAQRPAIEAIINEMEQEKKQKMG | 0.0493

Row | Sequence | soluble fraction (log2)
47 | HMDALPLIQLEKEIKDFISQGQKINAIKHYRNVMDRDFGTTISLKLAKYTVDALAQNIKVDLTKGYDQ | -1.01
48 | HMDALTLSIDAQGALYWNGQPVSRELAAQRFVEAAAQRPQPELHLRADQNVAYRHVAMTLADASRAGLTR | -0.248
49 | HMDANAYTYKVSEDTDTRTGEKIFLVKVAEKLSRKEYIVVNNYMKSLGSYYSKFKHAFLFKENPTEKL | -0.55
50 | HMDANLGEIFKVYEQEIGALTPFVREEMLDAIDHYPRDWILDAIRESAKSNARNWKYTLAILKRWKAEG | -0.284
51 | HMDAPIIRLLNSLVQRAVTTTASDIHIEPFEGETKVRMRIDGVIIDYVTLQRALHQPLIARIKIMSNLD | -0.15
52 | HMDAPKTGSLVVSKAVNYGSWSGFTFRLHGTSDKGNSVDVTATTGSDGKAYFKDIEIGTYTLEEVN | -0.406
53 | HMDAQEAAWARKMMETLPEKQKLSVALRIEEGLSFKEIGEIIGSSEGAARVNYFHGIRRLRELL | -0.789
54 | HMDAQNLQDQLFGFLKANPTQAYPAQTLADGLRLDDANAFTKVVQALAALERGGKVKVNEEGAFQYDAEK | 0.43
55 | HMDARSTHIAAIHVLKSKLQLQDSDYRALLLTLTGQTSSKDLSEHQRRAVRNHMQQLAERMGVVQ | -1.46
56 | HMDATFKVRVSVPDLNIRSGPGTNYAATGRFTGVGVFTITAVQSGQGSSSGWGKLKSGAGWIALDYAKR | -3.78
57 | HMDATIGGFKITDSAIYSGVKNNVNAGVRGTYIDKDGQIAFGDSNSYLKYYKDTDGKWKLEVSASSVKF | 0.454
58 | HMDAVDKDGNHMTFKKWSEQLQEAFHALELYDTTRAKQILSELVKFQVDSDITKSLKAIITNIDDMMA | -1.13
59 | HMDAYDEVTTLSQMVASGKNTTVAHLKHLKEYHQTDYLRQAVEWLLSNRKNVSFSVDEVMQEVHN | -0.0471
60 | HMDAYLPETVQKLLDVMDFDVPYSAAQLMEKLGLKSRASFRKLYLLPALEKNLIAMGVPDKPTSRNQTYIR | -0.787
61 | HMDAYSYFIRTYPLVDDPLIGDIRRIFAETHDGNPAGDADVRHILWRLLFERELYPTLDEATADWY | -2.39
62 | HMDDEAVQIMTLHISKGLEFDVVFALGLVSRTPESKEIEELEAEKQRQLYVAMTRAEKWLIVAA | 0.202
63 | HMDDEDLAFLQREFVSYQQAMDYYGLGYKPVVRLSHISGSVYKIGKKVLIRRNIFEEYLRNHV | 0.0397
64 | HMDDFGERLRKLRVAQDLTQQQLGEKLGVVPSTIGKYEKVKDSYPSIEVLIKLSDFFSVSTDYLLKG | -2.19
65 | HMDDFTEVLLQYLKDHDGYSSIHDKTDAETIYNTFGVSKKTFKKAVGDLYKKRLIVLEEEGIRLLG | -0.151
66 | HMDDISLEEIKYISSKLETKVNEIEELLVRYYDGETNEAEEKELKEFFAQADVPAHLLAEKRLFMQLASQ | 0.245
67 | HMDDKVGKVFNYVQEKILTGEWDIGDKITPEISLSKELGVSRSVVREAIKKFVALNILSRTQGGGTYVNNL | -0.848
68 | HMDDNMNEQWKMILNSIAKKGSVTRQETEKILGIGQTRAHVLLKAMIHAGMIKAVGDGKKRRYVR | -2.28
69 | HMDDNRSLSDLAQQVFKRENIQVSRDTLSLLVSRLGSDRAVSRQEIEKLALFAGSNGKLTEEDIHNALG | 0.0459
